Literature values, collected in publication PMC8555654.

Target: PlexA2 (Mus musculus) (UniProt P70207)
Sequence (P70207 35-1237): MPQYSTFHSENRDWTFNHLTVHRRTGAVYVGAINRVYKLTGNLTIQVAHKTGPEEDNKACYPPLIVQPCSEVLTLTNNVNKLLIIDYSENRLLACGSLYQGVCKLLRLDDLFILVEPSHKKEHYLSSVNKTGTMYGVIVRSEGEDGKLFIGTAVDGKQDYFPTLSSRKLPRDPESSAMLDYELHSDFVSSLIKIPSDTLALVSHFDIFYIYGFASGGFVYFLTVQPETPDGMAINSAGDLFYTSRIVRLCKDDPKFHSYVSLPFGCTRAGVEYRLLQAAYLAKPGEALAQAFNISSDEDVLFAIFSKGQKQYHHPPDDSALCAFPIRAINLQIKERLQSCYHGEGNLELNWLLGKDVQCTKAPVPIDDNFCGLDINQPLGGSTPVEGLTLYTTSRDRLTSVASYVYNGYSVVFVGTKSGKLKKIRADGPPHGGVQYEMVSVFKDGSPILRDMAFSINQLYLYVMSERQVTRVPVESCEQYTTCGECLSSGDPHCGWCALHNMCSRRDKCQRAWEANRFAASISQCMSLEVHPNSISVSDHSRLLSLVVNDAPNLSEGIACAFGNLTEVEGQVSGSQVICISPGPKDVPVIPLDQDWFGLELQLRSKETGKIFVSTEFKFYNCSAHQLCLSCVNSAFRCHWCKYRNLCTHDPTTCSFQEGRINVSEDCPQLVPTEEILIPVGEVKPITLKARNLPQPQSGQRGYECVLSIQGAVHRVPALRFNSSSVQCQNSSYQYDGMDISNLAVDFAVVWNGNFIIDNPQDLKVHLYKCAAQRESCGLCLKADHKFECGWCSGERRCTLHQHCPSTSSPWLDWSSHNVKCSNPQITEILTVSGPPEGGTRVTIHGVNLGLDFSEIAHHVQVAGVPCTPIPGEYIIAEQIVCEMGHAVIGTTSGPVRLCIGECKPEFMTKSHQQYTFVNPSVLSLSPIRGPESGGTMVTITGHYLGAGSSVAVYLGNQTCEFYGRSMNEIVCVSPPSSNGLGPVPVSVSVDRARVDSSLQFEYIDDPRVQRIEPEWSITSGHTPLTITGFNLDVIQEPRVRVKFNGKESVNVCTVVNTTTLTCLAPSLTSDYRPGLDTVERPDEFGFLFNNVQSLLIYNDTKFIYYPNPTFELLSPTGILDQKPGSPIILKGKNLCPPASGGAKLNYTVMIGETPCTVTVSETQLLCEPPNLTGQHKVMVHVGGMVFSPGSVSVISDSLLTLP

Kd: 66 µM
Substance: Npn1 (from UniProt P97333)
